The source of these data is the supplement of paper PMC10724198.

± gives the standard deviation of the averaged measurements.

Series [1] concerns Saccharomyces cerevisiae. Nature of the series: protein stability index of tFT-peptide fusion (C-terminal peptide) (PSI (0-1 scale)); higher = more stable (slower turnover). The settings on record: genetic background: wild type; temperature: 30 C.
In series [2] the test system is Saccharomyces cerevisiae. Described as above. How it is done: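 MPS profiling in S. cerevisiae of the tFT-X12 degron library: putative degron peptides plus stable controls, 12 aa, fused to the C-terminus of a sfGFP-mCherry timer. Cells are FACS-sorted into 8 mCherry/sfGFP bins and deep-sequenced. PSI runs from 0 (unstable) to 1 (stable). Backgrounds are wild type, das1Δ and doa10Δ at 30 °C, and wild type, das1Δ, cdc34-1 and cdc53-1 at 37 °C; 2-3 technical replicates each.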

[3] abbreviates: genetic background: cdc34-1, temperature: 37 C.
The mark [4] stands for this setting: genetic background: cdc53-1, temperature: 37 C.
Where [5] appears, read: genetic background: das1 deletion, temperature: 30 C.
Setting [6] is: genetic background: das1 deletion, temperature: 37 C.
[7] abbreviates: genetic background: doa10 deletion, temperature: 30 C.
[8] abbreviates: genetic background: wild type, temperature: 30 C.
Where [9] appears, read: genetic background: wild type, temperature: 37 C.
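Note: PSI is a weighted mean of sequencing reads over stability bins, variants kept only with over 10 reads, mCherry proximal and sfGFP distal, peptide attached via GGGS linker.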

Regarding ACCLLFSFAFTV, the protein stability index with Saccharomyces cerevisiae [1] stood at 0.301 ± 0.028; in the series on Saccharomyces cerevisiae [2] (setting [3]) it was 0.452 ± 0.026; with Saccharomyces cerevisiae [2] (setting [4]), 0.5103 ± 0.0014; in the series on Saccharomyces cerevisiae [2] (setting [5]), 0.32 ± 0.04; in the series with Saccharomyces cerevisiae [2] (setting [6]) it was 0.517 ± 0.0016; in the series with Saccharomyces cerevisiae [2] (setting [7]), 0.187 ± 0.0034. In addition, the protein stability index stood at 0.213 ± 0.029 in the series on Saccharomyces cerevisiae [2] (setting [8]) and 0.4184 ± 0.0027 with Saccharomyces cerevisiae [2] (setting [9]).

With AFFALGSFFFLL, the protein stability index is 0.0874 ± 0.015 in the series on Saccharomyces cerevisiae [1]; 0.631 ± 0.042 with Saccharomyces cerevisiae [2] (setting [3]); 0.685 ± 0.0071 with Saccharomyces cerevisiae [2] (setting [4]); 0.586 ± 0.039 in the series with Saccharomyces cerevisiae [2] (setting [5]); 0.7296 ± 0.0054 in the series on Saccharomyces cerevisiae [2] (setting [6]); 0.265 ± 0.0044 in the series with Saccharomyces cerevisiae [2] (setting [7]). Moreover, the figures for the protein stability index in the series on Saccharomyces cerevisiae [2] (setting [8]) and with Saccharomyces cerevisiae [2] (setting [9]) were 0.289 ± 0.03 and 0.519 ± 0.034, respectively.

For APLPPVCPSPSL, the protein stability index with Saccharomyces cerevisiae [2] (setting [3]) came out at 0.667 ± 0.081; in the series on Saccharomyces cerevisiae [2] (setting [4]) it was 0.72 ± 0.015; with Saccharomyces cerevisiae [2] (setting [5]) it was 0.655 ± 0.0086; with Saccharomyces cerevisiae [2] (setting [6]), 0.713 ± 0.019; in the series with Saccharomyces cerevisiae [2] (setting [7]), 0.679 ± 0.052; in the series on Saccharomyces cerevisiae [2] (setting [8]) it was 0.657 ± 0.018. The sequence also returned a protein stability index with Saccharomyces cerevisiae [2] (setting [9]) of 0.72 ± 0.01.

DNTVWLRLVTSC: the protein stability index worked out at 0.32 ± 0.052 in the series on Saccharomyces cerevisiae [2] (setting [3]); 0.506 ± 0.011 in the series with Saccharomyces cerevisiae [2] (setting [4]); 0.402 ± 0.017 in the series on Saccharomyces cerevisiae [2] (setting [5]); 0.565 ± 0.013 in the series with Saccharomyces cerevisiae [2] (setting [6]); 0.0752 ± 0.013 in the series on Saccharomyces cerevisiae [2] (setting [7]); 0.0895 ± 0.015 with Saccharomyces cerevisiae [2] (setting [8]). Further, the protein stability index in the series on Saccharomyces cerevisiae [2] (setting [9]) was 0.0768 ± 0.016.

FCLRQPMLRFFI: the protein stability index in the series with Saccharomyces cerevisiae [2] (setting [3]) is 0.586 ± 0.027; in the series with Saccharomyces cerevisiae [2] (setting [4]), 0.595 ± 0.012; in the series with Saccharomyces cerevisiae [2] (setting [5]), 0.562 ± 0.037; with Saccharomyces cerevisiae [2] (setting [6]), 0.639 ± 0.0057; in the series on Saccharomyces cerevisiae [2] (setting [7]) it was 0.479 ± 0.03; with Saccharomyces cerevisiae [2] (setting [8]) it was 0.442 ± 0.028. The sequence also yielded a protein stability index with Saccharomyces cerevisiae [2] (setting [9]) of 0.54348 ± 9.7e-05.

Regarding FLFVSVFHPALL, the protein stability index was 0.6421 ± 0.0042 in the series on Saccharomyces cerevisiae [2] (setting [3]); 0.70858 ± 0.0003 in the series on Saccharomyces cerevisiae [2] (setting [4]); 0.593 ± 0.059 in the series on Saccharomyces cerevisiae [2] (setting [5]); 0.6911 ± 0.0062 in the series with Saccharomyces cerevisiae [2] (setting [6]); 0.3787 ± 0.0024 in the series with Saccharomyces cerevisiae [2] (setting [7]); 0.409 ± 0.019 in the series on Saccharomyces cerevisiae [2] (setting [8]). The protein stability index in the series with Saccharomyces cerevisiae [2] (setting [9]) is 0.601 ± 0.013.

As for GAVGGWGWVSFV, the protein stability index with Saccharomyces cerevisiae [2] (setting [3]) stood at 0.683 ± 0.049; with Saccharomyces cerevisiae [2] (setting [4]) it was 0.7583 ± 0.0075; in the series on Saccharomyces cerevisiae [2] (setting [5]), 0.603 ± 0.034; with Saccharomyces cerevisiae [2] (setting [6]), 0.771 ± 0.01; in the series with Saccharomyces cerevisiae [2] (setting [7]) it was 0.3855 ± 0.0037; with Saccharomyces cerevisiae [2] (setting [8]), 0.397 ± 0.0083. The sequence further gave a protein stability index with Saccharomyces cerevisiae [2] (setting [9]) of 0.595 ± 0.092.

Take GGCGFVWWRLLG: the protein stability index with Saccharomyces cerevisiae [2] (setting [3]) was 0.544 ± 0.023; in the series on Saccharomyces cerevisiae [2] (setting [4]), 0.6932 ± 0.0055; in the series with Saccharomyces cerevisiae [2] (setting [5]), 0.622 ± 0.033; with Saccharomyces cerevisiae [2] (setting [6]), 0.752 ± 0.0098; in the series on Saccharomyces cerevisiae [2] (setting [7]) it was 0.125 ± 0.0054; in the series with Saccharomyces cerevisiae [2] (setting [8]) it was 0.144 ± 0.033. This sequence also showed a protein stability index with Saccharomyces cerevisiae [2] (setting [9]) of 0.199 ± 0.022.

With GGGRGGRWGRLC, the protein stability index in the series with Saccharomyces cerevisiae [2] (setting [3]) was 0.65 ± 0.042; in the series on Saccharomyces cerevisiae [2] (setting [4]), 0.743 ± 0.016; in the series with Saccharomyces cerevisiae [2] (setting [5]), 0.654 ± 0.013; with Saccharomyces cerevisiae [2] (setting [6]), 0.7395 ± 0.007; in the series on Saccharomyces cerevisiae [2] (setting [7]) it was 0.188 ± 0.018; with Saccharomyces cerevisiae [2] (setting [8]), 0.214 ± 0.024. Also, the protein stability index in the series on Saccharomyces cerevisiae [2] (setting [9]) was 0.483 ± 0.012.

In the case of GLLMCNPLLHSI, the protein stability index was 0.66632 ± 0.00053 in the series on Saccharomyces cerevisiae [2] (setting [3]); 0.734 ± 0.0075 with Saccharomyces cerevisiae [2] (setting [4]); 0.674 ± 0.038 in the series on Saccharomyces cerevisiae [2] (setting [5]); 0.727 ± 0.03 in the series on Saccharomyces cerevisiae [2] (setting [6]); 0.589 ± 0.032 in the series with Saccharomyces cerevisiae [2] (setting [7]); 0.614 ± 0.011 in the series with Saccharomyces cerevisiae [2] (setting [8]). In the series with Saccharomyces cerevisiae [2] (setting [9]), this sequence came in with a protein stability index of 0.704 ± 0.016.

Regarding IMWAFFMFCSFL, the protein stability index in the series on Saccharomyces cerevisiae [2] (setting [3]) came out at 0.498 ± 0.067; in the series with Saccharomyces cerevisiae [2] (setting [4]), 0.53764 ± 0.00031; in the series on Saccharomyces cerevisiae [2] (setting [5]), 0.428 ± 0.057; in the series on Saccharomyces cerevisiae [2] (setting [6]), 0.5564 ± 0.0029; with Saccharomyces cerevisiae [2] (setting [7]), 0.37 ± 0.0076; in the series on Saccharomyces cerevisiae [2] (setting [8]), 0.367 ± 0.026. Besides, the protein stability index in the series on Saccharomyces cerevisiae [2] (setting [9]) was found to be 0.481 ± 0.044.

Regarding LSLCFGPFFYFP, the protein stability index in the series on Saccharomyces cerevisiae [2] (setting [3]) was found to be 0.679 ± 0.072; in the series with Saccharomyces cerevisiae [2] (setting [4]), 0.7329 ± 0.0056; in the series on Saccharomyces cerevisiae [2] (setting [5]), 0.64 ± 0.029; with Saccharomyces cerevisiae [2] (setting [6]), 0.711 ± 0.03; in the series on Saccharomyces cerevisiae [2] (setting [7]) it was 0.64 ± 0.042; in the series with Saccharomyces cerevisiae [2] (setting [8]) it was 0.6242 ± 0.0027. In the series on Saccharomyces cerevisiae [2] (setting [9]), the protein stability index stood at 0.704 ± 0.046.

In the case of PPPPPSARSPFR, the protein stability index with Saccharomyces cerevisiae [2] (setting [3]) came to 0.649 ± 0.043; in the series with Saccharomyces cerevisiae [2] (setting [4]), 0.726 ± 0.012; with Saccharomyces cerevisiae [2] (setting [5]), 0.633 ± 0.027; with Saccharomyces cerevisiae [2] (setting [6]), 0.7402 ± 0.0063; in the series with Saccharomyces cerevisiae [2] (setting [7]), 0.603 ± 0.03; with Saccharomyces cerevisiae [2] (setting [8]), 0.602 ± 0.0097. This sequence also showed a protein stability index in the series on Saccharomyces cerevisiae [2] (setting [9]) of 0.695 ± 0.004.

As to RVIESRWFNRLC, the protein stability index with Saccharomyces cerevisiae [2] (setting [3]) was determined as 0.587 ± 0.033; in the series with Saccharomyces cerevisiae [2] (setting [4]), 0.72 ± 0.015; in the series with Saccharomyces cerevisiae [2] (setting [5]), 0.656 ± 0.025; with Saccharomyces cerevisiae [2] (setting [6]) it was 0.7405 ± 0.0048; with Saccharomyces cerevisiae [2] (setting [7]) it was 0.0884 ± 0.011; with Saccharomyces cerevisiae [2] (setting [8]) it was 0.121 ± 0.019. In the series with Saccharomyces cerevisiae [2] (setting [9]), this sequence yielded a protein stability index of 0.229 ± 0.018.
